Results published in PMC10515849.

Biological target: long form of human LepR (LepRb), full length, on HEK293T cells (human) (UniProt P48357)
Assay: flow cytometry on cells

Sequence of UniProt P48357 (P48357 22-1165): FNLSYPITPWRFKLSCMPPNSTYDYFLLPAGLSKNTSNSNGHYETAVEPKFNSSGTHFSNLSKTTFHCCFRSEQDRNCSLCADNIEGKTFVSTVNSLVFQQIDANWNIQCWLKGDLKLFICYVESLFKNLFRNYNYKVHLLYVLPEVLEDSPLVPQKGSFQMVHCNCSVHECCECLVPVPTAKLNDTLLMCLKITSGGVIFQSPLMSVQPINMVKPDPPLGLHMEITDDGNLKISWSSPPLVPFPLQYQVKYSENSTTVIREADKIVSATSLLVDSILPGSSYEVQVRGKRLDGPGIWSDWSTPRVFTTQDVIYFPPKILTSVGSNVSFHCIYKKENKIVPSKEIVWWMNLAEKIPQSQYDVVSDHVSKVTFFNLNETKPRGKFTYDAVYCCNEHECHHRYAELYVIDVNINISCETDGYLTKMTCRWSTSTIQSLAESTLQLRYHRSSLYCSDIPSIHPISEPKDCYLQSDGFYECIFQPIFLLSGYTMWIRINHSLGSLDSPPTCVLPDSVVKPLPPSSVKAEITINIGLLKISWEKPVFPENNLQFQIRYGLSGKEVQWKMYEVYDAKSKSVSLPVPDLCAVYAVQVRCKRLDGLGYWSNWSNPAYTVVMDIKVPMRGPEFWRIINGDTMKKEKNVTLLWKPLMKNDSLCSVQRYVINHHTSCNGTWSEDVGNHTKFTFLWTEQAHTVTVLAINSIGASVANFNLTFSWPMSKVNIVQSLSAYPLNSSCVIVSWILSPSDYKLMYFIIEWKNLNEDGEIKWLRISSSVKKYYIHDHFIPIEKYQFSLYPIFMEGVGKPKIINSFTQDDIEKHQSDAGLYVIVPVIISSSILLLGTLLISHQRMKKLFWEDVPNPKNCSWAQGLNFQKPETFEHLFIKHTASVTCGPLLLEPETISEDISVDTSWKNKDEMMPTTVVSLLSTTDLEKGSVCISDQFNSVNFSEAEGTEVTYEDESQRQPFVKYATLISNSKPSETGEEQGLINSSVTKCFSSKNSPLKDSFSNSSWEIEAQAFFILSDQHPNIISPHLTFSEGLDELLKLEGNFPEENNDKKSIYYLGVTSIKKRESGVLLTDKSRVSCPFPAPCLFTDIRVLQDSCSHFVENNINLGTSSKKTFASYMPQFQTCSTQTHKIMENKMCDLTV

Kd: 2.2 nM
Substance: FITC-labeled rASRA (natural protein)
